Test [1] concerns the target T1, CD70 on cells (CHO-CD70, JVM-3, U266, Raji, THP-1, T cells) (human, UniProt P32970 1-193).
T1 construct: whole, on cells; also called cell-surface CD70
T1 sequence (looked up): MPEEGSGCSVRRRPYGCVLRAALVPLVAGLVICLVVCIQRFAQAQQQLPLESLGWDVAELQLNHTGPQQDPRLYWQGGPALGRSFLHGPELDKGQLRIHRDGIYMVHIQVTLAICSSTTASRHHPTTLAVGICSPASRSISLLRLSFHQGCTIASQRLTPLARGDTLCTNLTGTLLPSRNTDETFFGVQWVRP
Briefly: 1.25 µg/mL scFv on JVM-3 cells. The procedure, abridged: (§1)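 Human scFv antibodies were raised by panning a naïve human library against the CD70 extracellular domain (aa39-193). They were tested for binding to tumour cell lines with high CD70 expression (CHO-CD70, JVM3, U266) and low CD70 expression (CHO WT, K562). Cell binding was recorded per cell line, and the detection method is not stated.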

For test [2], the target named is T2, human CD70, recombinant, N-terminally biotinylated (residues 39-193) (human, UniProt P32970 39-193, N-terminal biotin).
T2 construct: range 39-193; the same entry is used there; also called biotinylated human CD70; CD70 biotin
T2 sequence (looked up): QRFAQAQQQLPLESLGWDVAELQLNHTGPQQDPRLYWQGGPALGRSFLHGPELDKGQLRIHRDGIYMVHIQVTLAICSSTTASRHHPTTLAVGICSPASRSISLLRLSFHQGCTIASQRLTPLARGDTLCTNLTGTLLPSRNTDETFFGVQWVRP
The test can be described thus: CD27 blocking ELISA, 3 µM scFv, strep/HRP. Background: An ELISA detects its analyte on a solid surface through an enzyme-linked reagent.

Test [3] concerns the target T2, human CD70, recombinant, N-terminally …. The test can be described thus: SPR. The procedure, abridged:
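Surface plasmon resonance (SPR) was used to determine the affinity (Kd) of human scFv antibodies for recombinant, N-terminally biotinylated human antigen. These antibodies were selected from a naïve human library panned against the CD70 extracellular domain, spanning aa39-193.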
(In general: Surface plasmon resonance follows binding to a sensor surface in real time, without labels.)

The target of test [4] is T1, CD70 on cells (CHO-CD70, JVM-3, U266, …). Briefly: 1.25 µg/mL scFv on CHO-CD70 cells. The procedure, abridged:
as §1

In test [5] the target is T2, human CD70, recombinant, N-terminally …. Briefly: CD27 blocking ELISA, 3 µM scFv, anti-His/HRP. Also: unit not given here. How it is done:
Human scFv antibodies binding CD70 were generated by panning a naïve human library with the extracellular domain (aa39-193) of CD70. 53 antibodies were identified. The ability of CD27 to block CD70 binding of the identified antibodies was measured by ELISA using two different assays. In the first assay, CD27 and his-tagged scFv anti-CD70 binders were simultaneously added to surface bound CD70, and the ability of the scFv binders to bind CD70 was detected with anti-His HRP. In the second assay, plate-bound CD70 was pre-incubated with CD27 for 30 minutes, and then additional CD27 and the his-tagged scFv anti-CD70 binder was added. The ability of the scFv binders to bind CD70 was detected with anti-His HRP. FIG. 34 is a schematic of the two different CD27 blocking assays. CD70 affinity was also measured by SPR analysis. scFv antibodies were also tested for their ability to bind tumor cell lines with high (CHO-CD70, JVM3, and U266) and low levels (CHO WT and K562 of CD70 expression. Results for 39 antibodies are shown in Table 1 below.

In test [6] the target is T1, CD70 on cells (CHO-CD70, JVM-3, U266, …). Briefly: 1.25 µg/mL scFv on U266 cells. The procedure, abridged: as §1

B1: 56-TC7-VI-H08 (scFv)
scFv: QMQLVQSGAEVKKPGASVKVSCKASGYTFTSYYMHWVRQAPGQGLEWMGIINPSGGSTSYAQKFQGRVTMTRDTSTSTAYMELRSLRSDDTAVYYCARGWETNDAFDIWGQGTMVTVSSGGSGGSGGSGGSQSVLTQPPSVSGAPGQKVTISCSGSNSNVGNHYLSWYQHLPGTAPRLLIFDNNKRPSGIPDRFSGSKSGASATLDITGLQTGDEADYFCGTWDSRLNVWVFGGGTKLTVL
notes: His-tagged
As for B1, the cell binding in test [1] is 2360; in test [4], 296000; in test [6], 6310. The strep/HRP in test [2] worked out at 1.44. Besides, in test [3], the Kd amounted to 535 nM. Moreover, the “anti His/HRP” value in test [5] turned out to be 1.5.

B2: 54-TC7-V-D10 (scFv)
scFv: QVQLQQWGAGLLKPSETLSLTCAVYGGSFSGYYWSWIRQPPGKGLEWIGEINHSGSTNYNPSLKSRVTISVDTSKNQFSLKLSSVTAADTAVYYCARGGYRSYWYFDLWGRGTLVTVSSGGSGGSGGSGGSQSALTQPASVSGSPGQSITISCTGTSSDVGGYNSVSWYQHHPGKAPKLMIYDVSDRPSGVSDRFSGSKSGNTASLTISGLQAEDEADYYCSSYAGSNNVVFGGGTKVTVL
notes: His-tagged
Turning to B2, the cell binding in test [1] amounted to 2130; in test [4], 240000; in test [6], 1140. In test [2], the strep/HRP is 1.17. In addition, the Kd in test [3] came to 209 nM. The “anti His/HRP” value in test [5] was determined as 1.46.

B3: 15-TC7-I-D07 (scFv)
scFv: QVQLQQWGAGLLKPSETLSLTCAVYGGSFSGYYWSWIRQPPGKGLEWIGEINHSGSTNYNPSLKSRVTISVDTSKNQFSLKLSSVTAADTAVYYCARVSRSRGAFDIWGQGTMVTVSSGGSGGSGGSGGSQSALTQPASVSGSPGQSITISCTGTNSDVGAYNYVSWYQQHPGKAPKLMIYEVTNRPSGVSNRFSGSKSGNTASLTISGLQAEDEADYYCSSYTSSGTWVFGGGTKLTVL
notes: His-tagged
B3: the cell binding in test [1] came to 50900; in test [4] it was 271000; in test [6], 42900. The strep/HRP in test [2] worked out at 1.45. In addition, the Kd in test [3] is 1750 nM. In addition, the “anti His/HRP” value in test [5] came to 2.5.

B4: 62-TC7-V-D08 (scFv)
scFv: QVQLQQWGAGLLKPSETLSLTCAVYGGSFSGYYWSWIRQPPGKGLEWIGEINHSGSTNYNPSLKSRVTISVDTSKNQFSLKLSSVTAADTAVYYCARVARGKGAFDIWGQGTMVTVSSGGSGGSGGSGGSQSALTQPASVSGSPGQSITISCTGTSSDVGGYNYVSWYQQHPGKAPKLLIYEVSSRPSGVSNRFSGSKSGNTASLTISGLQAEDEADYYCNSYTNSGSWVFGGGTKVTVL
notes: His-tagged
Take B4: the cell binding in test [1] is 45200; in test [4] it was 286000; in test [6], 35300. The strep/HRP in test [2] was found to be 1.54. In addition, the Kd in test [3] is 194 nM. The “anti His/HRP” value in test [5] came to 2.

B5: 57-TC7-VII-A03 (scFv)
scFv: QVQLQQSGPGLVKASETLSLTCAVSGHSISSSNYWGWIRQPPGKGLEWIGSIYHSGTTYYNPSLKSRVTMSVDTSKNQFSLKLSSVTAADTAVYYCARHGSGDLGYLEYWGQGTLVTVSSGGSGGSGGSGGSSYELTQSPSVSVAPGKTARITCGGNNIGSKSVHWYQQKPGQAPVLVIYYDSDRPSGIPERFSGSNSGNTATLTISRVEAGDEADYYCQVWDSSSDHPVFGGGTKVTVL
notes: His-tagged
Turning to B5, the cell binding in test [1] was found to be 1640; in test [4] it was 163000; in test [6] it was 3150. In test [2], the strep/HRP turned out to be 1.49. In test [3], the Kd was 853 nM. Also, the “anti His/HRP” value in test [5] was 1.89.

B6: 51-TC7-VIII-G06 (scFv)
scFv: QVQLLESGGGLVQPGRSLRLSCAASGFTFDDYAMHWVRQAPGKGLEWVSGITWNSGSIGYADSVKGRFTISRDNAKNSLYLQMNSLRAEDTAVYYCAREVAARPFYYYGMDVWGQGTTVTVSSGGSGGSGGSGGSQSVLTQPPSVSVAPGKTARITCGGNNIGSKSVHWYQQKPGQAPVLVVYDDSDRPSGIPERFSGSNSGNTATLTISGTQAMDEADYYCQAWDSSTVFGGGTKLTVL
notes: His-tagged
As to B6, the figures for the cell binding in test [1], in test [4] and in test [6] were 4260, 170000 and 2140, respectively. The strep/HRP in test [2] came out at 1.46. Further, in test [3], the Kd turned out to be 532 nM. In addition, the “anti His/HRP” value in test [5] was found to be 0.676.

B7: 40-TC7-VI-F11 (scFv)
scFv: EVQLVESGGGVVQPGRSLRLSCAASGFTFSSYAMHWVRQAPGKGLEWVAVISYDGSNKYYADSVKGRFTISRDNSKNTLYLQMNSLRAEDTAVYYCARDGYGFDYWGQGTLVTVSSGGSGGSGGSGGSSYELTQSPSVSVAPGQTARITCGGNNIGSKSVHWYQQKPGQAPVLVVYDDSDRPSGIPERFSGSNSGNTATLTISRVEAGDEADYYCQVWDSSTPYVFGTGTKLTVL
notes: His-tagged
Turning to B7, the cell binding in test [1] was found to be 4870; in test [4] it was 235000; in test [6] it was 11800. Also, the strep/HRP in test [2] was 1.37. Besides, in test [3], the Kd is 279 nM. For the same molecule, the “anti His/HRP” value in test [5] amounted to 1.84.

B8: 61-TC7-IV-H08 (scFv)
scFv: QMQLVQSGGGLVQPGRSLRLSCAASGFTFDDYAMHWVRQAPGKGLEWVAVISYDGSNKYYADSVKGRFTISRDNSKNTLYLQMNSLRAEDTAVYYCARSSYDFWSGYPKDMDVWGKGTTVTVSSGGSGGSGGSGGSSSELTQDPAVSVALGQTVRITCQGDSLRSYYASWYQQKPGQAPVLVIYGKNNRPSGIPDRFSGSSSGNTASLTITGAQAEDEADYYCNSRDSSGNHLVVFGGGTKLTVL
notes: His-tagged
Take B8: the cell binding in test [1] amounted to 1070; in test [4] it was 64900; in test [6], 947. For the same molecule, the strep/HRP in test [2] came to 1.52. In test [3], the Kd came out at 332 nM. The “anti His/HRP” value in test [5] worked out at 0.711.

B9: 38-TC7-V-G06 (scFv)
scFv: QMQLVQSGAEVKKPGSSVKVSCKASGGTFSSYAISWVRQAPGQGLEWMGWISAYNGNTNYAQKLQGRVTMTTDTSTSTAYMELRSLRSDDTAVYYCARDDYWGQGTLVTVSSGGSGGSGGSGGSSYELTQPPSVSVAPGKTARITCSGDVLGENYADWYQQKPGQAPELVIYEDSERYPGIPERFSGSTSGNTTTLTISRVLTEDEADYYCLSGDEDNRVFGGGTKLTVL
notes: His-tagged
Take B9: the figures for the cell binding in test [1], in test [4] and in test [6] were 27400, 1.34e+06 and 16900, respectively. Further, in test [2], the strep/HRP is 1.53. Also, the Kd in test [3] was 182 nM. Moreover, in test [5], the “anti His/HRP” value is 1.02.

B10: 47-TC7-III-D10 (scFv)
scFv: QVQLVQSGAEVKKPGASVKVSCKASGYTFTSYGISWVRQAPGQGLEWMGWISAYNGNTNYAQKLQGRVTMTTDTSTSTAYMELRSLRSDDTAVYYCARDSSSWYYYYGMDVWGQGTTVTVSSGGSGGSGGSGGSSYELTQPPSVSVSPGQTARISCSGDALPNQYAYWYQQKPGQAPVLVIYQDSERPSGIPERFSGSSSGTTVTLTISGVQAEDEADYYCQSADTYGTSWVFGGGTKLTVL
notes: His-tagged
Turning to B10, the cell binding amounted to 34700 in test [1], 313000 in test [4] and 19000 in test [6]. Further, the strep/HRP in test [2] came to 1.55. In addition, in test [3], the Kd amounted to 18.6 nM. Further, in test [5], the “anti His/HRP” value is 1.5.

B11: 46-TC7-VII-E11 (scFv)
scFv: QVQLVQSGGGVVQPGRSLRLSCAASGFTFSSYAMHWVRQAPGKGLEWVAVISYDGSNKYYADSVKGRFTISRDNSKNTLYLQMNSLRAEDTAVYYCARDSSGYYYGSDAFDIWGQGTMVTVSSGGSGGSGGSGGSSYELTQPPSVSVALGQTVRITCQGDSLRSYYASWYQQKPGQAPVLVIYGKNNRPSGIPDRFSGSSSGNTASLTITGAQAEDEADYYCNSRDSSGNPWVFGGGTKVTVL
notes: His-tagged
As for B11, the cell binding in test [1] amounted to 1790; in test [4], 76200; in test [6], 2290. Further, the strep/HRP in test [2] worked out at 1.26. Further, the Kd in test [3] worked out at 180 nM. In test [5], the “anti His/HRP” value stood at 2.28.

The Kd is the equilibrium constant for the complex coming apart.

The values are drawn from US20240252641A1 (TCR2 THERAPEUTICS, published 2024).
